Laboratory results from the FLAb antibody collection (doi:10.7554/elife.23156).

B1: scFv; the commonest letter at each place (parent)
chain 1: EVKLDETGGGLVQPGRPMKLSCVASGFTFSDYWMNWVRQSPEKGLEWVAQIRNKPYNYETYYSDSVKGRFTISRDDSKSSVYLQMNNLRVEDMGIYYCTGSYYGMDYWGQGTSVTVS
chain 2: DVVMTQTPLSLPVSLGDQASISCRSSQSLVHSNGNTYLRWYLQKPGQSPKVLIYKVSNRFSGVPDRFSGSGSGTDFTLKISRVEAEDLGVYFCSQSTHVPWTFGGGTKLEIK

Key:
fluorescein = variants of: B1; assay: Kd (Tite-Seq); conditions: with fluorescein; format: scFv 4-4-20, heavy + light
[1] = variants of: B1; assay: yeast surface expression (ratio to wild type); higher = more expressed; conditions: format: scFv 4-4-20, heavy + light

Row | Variant | Kd (fluorescein) [µM] | yeast surface expression [1]
1 | chain 1 T28S W33F | 1.02 | 0.903
2 | chain 1 T28S W33S | ≥ 10 | 0.919
3 | chain 1 T28S W36R | 1.81 | 0.57
4 | chain 1 T28S Y32F W36H | ≥ 10 | 0.533
5 | chain 1 T28V | 0.00128 | 1
6 | chain 1 T28V F29D | ≥ 10 | 0.952
7 | chain 1 T28V F29Q | 0.004 | 0.917
8 | chain 1 T28V F29W | 0.0154 | 0.491
9 | chain 1 T28V S30Q | 0.000989 | 1.1
10 | chain 1 T28V W33G | ≥ 10 | 0.759
11 | chain 1 T28V W36H | ≥ 10 | 0.619
12 | chain 1 T28V Y32S V37F | ≥ 10 | 0.818
13 | chain 1 T28W | 0.0038 | 0.893
14 | chain 1 T28W D31F | 0.116 | 0.553
15 | chain 1 T28W D31R | 0.0171 | 0.51
16 | chain 1 T28W F29M | 0.0139 | 0.897
17 | chain 1 T28W F29P S30F | ≥ 10 | 0.601
18 | chain 1 T28W N35A | ≥ 10 | 0.862
19 | chain 1 T28W N35H | ≥ 10 | 0.727
20 | chain 1 T28W S30A | 0.00444 | 0.868
21 | chain 1 T28W W33F W36P | ≥ 10 | 0.554
22 | chain 1 T28Y | 0.00325 | 0.919
23 | chain 1 T28Y D31V | ≥ 10 | 0.509

Row | Variant | Kd (fluorescein) [µM] | yeast surface expression [1]
24 | chain 1 T28Y D31W V37T | 0.00638 | 0.808
25 | chain 1 T28Y F29T W33T | ≥ 10 | 0.745
26 | chain 1 T28Y M34L N35C | ≥ 10 | 0.495
27 | chain 1 T28Y M34W | 0.0692 | 0.6
28 | chain 1 T28Y N35E | ≥ 10 | 0.319
29 | chain 1 T28Y N35Y | ≥ 10 | 0.86
30 | chain 1 T28Y S30L | 0.00708 | 0.792
31 | chain 1 T28Y W36Q | ≥ 10 | 0.297
32 | chain 1 V37C | ≤ 0.000316 | 0.926
33 | chain 1 V37D | 0.00122 | 1.05
34 | chain 1 V37E | ≥ 10 | 0.597
35 | chain 1 V37F | 0.0259 | 0.9
36 | chain 1 V37H | 7.72 | 0.831
37 | chain 1 V37I | 0.00239 | 0.916
38 | chain 1 V37K | 3.55 | 0.351
39 | chain 1 V37L | 1.14 | 0.782
40 | chain 1 V37N | 0.00309 | 0.62
41 | chain 1 V37Q | 0.00194 | 0.731
42 | chain 1 V37R | 1.08 | 0.716
43 | chain 1 V37S | 0.00561 | 0.673
44 | chain 1 V37W | 9.02 | 0.746
45 | chain 1 V37Y | 0.129 | 1.04
46 | chain 1 W33A V37N | ≥ 10 | 0.49

Row | Variant | Kd (fluorescein) [µM] | yeast surface expression [1]
47 | chain 1 W33C N35W | 5.37 | 0.456
48 | chain 1 W33C V37W | ≥ 10 | 0.503
49 | chain 1 W33D | ≥ 10 | 0.986
50 | chain 1 W33D M34Q | ≥ 10 | 0.754
51 | chain 1 W33D M34W | ≥ 10 | 1.03
52 | chain 1 W33D V37C | ≥ 10 | 0.802
53 | chain 1 W33D W36M | ≥ 10 | 0.165
54 | chain 1 W33E | ≥ 10 | 1.05
55 | chain 1 W33E M34L | ≥ 10 | 0.721
56 | chain 1 W33E N35C | ≥ 10 | 0.797
57 | chain 1 W33E N35K | ≥ 10 | 0.455
58 | chain 1 W33E V37L | ≥ 10 | 0.674
59 | chain 1 W33E W36L | ≥ 10 | 0.622
60 | chain 1 W33F | 0.0412 | 0.902
61 | chain 1 W33F N35F | ≥ 10 | 0.3
62 | chain 1 W33F N35Q | ≥ 10 | 0.614
63 | chain 1 W33F N35T | ≥ 10 | 0.824
64 | chain 1 W33G M34I | ≥ 10 | 0.433
65 | chain 1 W33G V37L | ≥ 10 | 0.49
66 | chain 1 W33G V37Y | ≥ 10 | 0.672
67 | chain 1 W33H M34V V37L | ≥ 10 | 0.434

Second part, led by results:

Row | Kd (fluorescein) [µM] | Variant | yeast surface expression [1]
68 | 0.00785 | chain 1 T28S V37S | 0.757
69 | 0.266 | chain 1 T28S Y32S | 0.966
70 | 0.00444 | chain 1 T28V D31M | 0.587
71 | 0.0353 | chain 1 T28V M34S | 0.593
72 | 0.00966 | chain 1 T28V M34Y | 0.889
73 | ≥ 10 | chain 1 T28V N35H | 0.671
74 | 0.000454 | chain 1 T28V S30D | 0.917
75 | ≥ 10 | chain 1 T28V Y32N | 0.765
76 | 0.0245 | chain 1 T28V Y32R | 0.717
77 | 0.11 | chain 1 T28W D31Y | 0.371
78 | ≥ 10 | chain 1 T28W F29R | 0.615
79 | 0.00606 | chain 1 T28W S30F | 0.69
80 | 1.55 | chain 1 T28W S30G Y32K | 0.576
81 | 0.00128 | chain 1 T28W V37C | 0.75
82 | ≥ 10 | chain 1 T28W Y32W | 0.65
83 | 0.00184 | chain 1 T28Y D31Y | 0.779
84 | ≥ 10 | chain 1 T28Y F29W | 0.672
85 | ≥ 10 | chain 1 T28Y N35S | 0.691
86 | 0.000804 | chain 1 T28Y S30P | 1.08
87 | ≥ 10 | chain 1 T28Y W36M | 0.486
88 | ≥ 10 | chain 1 T28Y Y32K | 0.818
89 | 0.0434 | chain 1 V37A | 0.784
90 | 0.071 | chain 1 V37G | 0.58
91 | 0.000333 | chain 1 V37M | 0.958
92 | ≥ 10 | chain 1 V37P | 0.676

Row | Kd (fluorescein) [µM] | Variant | yeast surface expression [1]
93 | 0.00606 | chain 1 V37T | 0.626
94 | ≥ 10 | chain 1 W33A | 0.883
95 | ≥ 10 | chain 1 W33A N35S W36M | 0.823
96 | ≥ 10 | chain 1 W33A V37W | 0.625
97 | ≥ 10 | chain 1 W33A W36H | 0.549
98 | ≥ 10 | chain 1 W33C | 0.827
99 | ≥ 10 | chain 1 W33C M34C W36A | 0.449
100 | ≥ 10 | chain 1 W33C M34G N35E | 1.65
101 | ≥ 10 | chain 1 W33C M34K | 0.774
102 | ≥ 10 | chain 1 W33C M34Q | 0.755
103 | ≥ 10 | chain 1 W33C W36G | 1.12
104 | ≥ 10 | chain 1 W33D N35G | 0.941
105 | ≥ 10 | chain 1 W33E M34W | 0.966
106 | ≥ 10 | chain 1 W33E N35G | 1.05
107 | ≥ 10 | chain 1 W33E N35R | 0.588
108 | ≥ 10 | chain 1 W33E V37C | 0.709
109 | ≥ 10 | chain 1 W33E V37T | 0.486
110 | ≥ 10 | chain 1 W33E V37Y | 1
111 | ≥ 10 | chain 1 W33F W36C | 0.455
112 | ≥ 10 | chain 1 W33F W36L | 0.594
113 | ≥ 10 | chain 1 W33G | 0.809
114 | ≥ 10 | chain 1 W33G W36I | 0.622
115 | ≥ 10 | chain 1 W33H | 0.765
116 | ≥ 10 | chain 1 W33H M34R V37T | 0.786
